# According to patent publication US20140147868A1:
# Positions of bridges follow the written chain, without caps; N, C: chain ends. No end group written: not given here.
# B1: phagemid CS1-9p (phage-displayed disulfide cyclized 13 mer peptide) (peptide)
# peptide: CSGLYPWDMFRCS
# modifications: disulfide 1-12 (inferred); also: displayed on phage (phagemid)
# B2: phagemid CS1-29p (phage-displayed disulfide cyclized 13 mer peptide) (peptide)
# peptide: CSGLYPWDYFMCS
# modifications: disulfide 1-12 (inferred); also: displayed on phage (phagemid)
# B3: phagemid CS1-2p (phage-displayed disulfide cyclized 13 mer peptide) (peptide)
# peptide: CSLFYLWDQDRCS
# modifications: disulfide 1-12 (inferred); also: displayed on phage (phagemid), coat fusion not given here
# B4: phagemid CS1-11p (phage-displayed disulfide cyclized 13 mer peptide) (peptide)
# peptide: CSFRYQWDMFRCS
# modifications: disulfide 1-12 (inferred); also: displayed on phage (phagemid)
# B5: phagemid CS1-31p (phage-displayed disulfide cyclized 13 mer peptide) (peptide)
# peptide: CSFFYSLCYCWCS
# modifications: disulfide (positions not given here); also: four Cys, disulfide pairing not given here
# B6: phagemid CS1-6p (phage-displayed disulfide cyclized 13 mer peptide) (peptide)
# peptide: CSFRYLWDQDRCS
# modifications: disulfide 1-12 (inferred); also: displayed on phage (phagemid)
# Molecular target: bovine serum albumin (bovine) (UniProt P02769)
# Sequence (P02769 25-607 limits assumed): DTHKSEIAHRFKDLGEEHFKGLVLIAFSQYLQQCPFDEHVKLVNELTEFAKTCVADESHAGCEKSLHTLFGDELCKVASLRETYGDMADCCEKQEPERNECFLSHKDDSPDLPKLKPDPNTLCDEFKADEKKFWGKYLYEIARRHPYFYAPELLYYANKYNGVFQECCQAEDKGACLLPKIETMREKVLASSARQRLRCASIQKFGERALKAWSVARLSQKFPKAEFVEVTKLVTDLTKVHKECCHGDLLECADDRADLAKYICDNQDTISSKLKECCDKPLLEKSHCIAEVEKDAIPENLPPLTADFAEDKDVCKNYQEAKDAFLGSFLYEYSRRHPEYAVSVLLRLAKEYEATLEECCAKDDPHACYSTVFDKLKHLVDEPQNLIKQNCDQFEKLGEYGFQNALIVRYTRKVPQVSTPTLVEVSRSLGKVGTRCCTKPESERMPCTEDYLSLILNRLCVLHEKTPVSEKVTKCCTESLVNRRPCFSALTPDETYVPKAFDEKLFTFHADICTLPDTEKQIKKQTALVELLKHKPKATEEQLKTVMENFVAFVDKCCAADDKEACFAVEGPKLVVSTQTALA
# Experiment: phage ELISA, BSA only, 10^8 phagemid per well
row,Binder,ELISA (absorbance units) (absorbance units)
1,B1,0.216
2,B2,0.127
3,B3,0.264
4,B4,0.268
5,B5,0.109
6,B6,0.254

# Molecular target: bovine serum albumin (bovine) (UniProt P02769)
# Experiment: phage ELISA, BSA only, 10^9 phagemid per well
row,Binder,ELISA (absorbance units) (absorbance units)
1,B1,0.22
2,B2,0.147
3,B3,0.277
4,B4,0.278
5,B5,0.114
6,B6,0.27

# Molecular target: bovine serum albumin (bovine) (UniProt P02769)
# Experiment: phage ELISA, BSA only, 10^10 phagemid per well
row,Binder,ELISA (absorbance units) (absorbance units)
1,B1,0.221
2,B2,0.141
3,B3,0.327
4,B4,0.304
5,B5,0.112
6,B6,0.275

# Molecular target: unrelated control antibody
# Experiment: phage ELISA, coated control mAb, 10^8 phagemid per well
row,Binder,ELISA (absorbance units) (absorbance units)
1,B1,0.209
2,B2,0.125
3,B3,0.188
4,B4,0.252
5,B5,0.116
6,B6,0.173

# Molecular target: unrelated control antibody
# Experiment: phage ELISA, coated control mAb, 10^9 phagemid per well
row,Binder,ELISA (absorbance units) (absorbance units)
1,B1,0.204
2,B2,0.136
3,B3,0.199
4,B4,0.258
5,B5,0.118
6,B6,0.172

# Molecular target: unrelated control antibody
# Experiment: phage ELISA, coated control mAb, 10^10 phagemid per well
row,Binder,ELISA (absorbance units) (absorbance units)
1,B1,0.213
2,B2,0.148
3,B3,0.228
4,B4,0.242
5,B5,0.125
6,B6,0.203
